Test results reported in patent US20050100554A1 (published 2005).

Legend:
[1] = biological target: T1, ribosomal protein L13 (human, UniProt P26373 1-211); test: Y2H; INT ID 396
T1 construct: also called RPL13; cbe_1380530

[2] = biological target: T2, catenin (cadherin-associated protein), delta 2 (neural plakophilin-related arm-repeat protein) (human, UniProt Q9UQB3 1-1225); test: Y2H; INT ID 397
T2 construct: also called CTNND2; cbe_1796502
T2 sequence: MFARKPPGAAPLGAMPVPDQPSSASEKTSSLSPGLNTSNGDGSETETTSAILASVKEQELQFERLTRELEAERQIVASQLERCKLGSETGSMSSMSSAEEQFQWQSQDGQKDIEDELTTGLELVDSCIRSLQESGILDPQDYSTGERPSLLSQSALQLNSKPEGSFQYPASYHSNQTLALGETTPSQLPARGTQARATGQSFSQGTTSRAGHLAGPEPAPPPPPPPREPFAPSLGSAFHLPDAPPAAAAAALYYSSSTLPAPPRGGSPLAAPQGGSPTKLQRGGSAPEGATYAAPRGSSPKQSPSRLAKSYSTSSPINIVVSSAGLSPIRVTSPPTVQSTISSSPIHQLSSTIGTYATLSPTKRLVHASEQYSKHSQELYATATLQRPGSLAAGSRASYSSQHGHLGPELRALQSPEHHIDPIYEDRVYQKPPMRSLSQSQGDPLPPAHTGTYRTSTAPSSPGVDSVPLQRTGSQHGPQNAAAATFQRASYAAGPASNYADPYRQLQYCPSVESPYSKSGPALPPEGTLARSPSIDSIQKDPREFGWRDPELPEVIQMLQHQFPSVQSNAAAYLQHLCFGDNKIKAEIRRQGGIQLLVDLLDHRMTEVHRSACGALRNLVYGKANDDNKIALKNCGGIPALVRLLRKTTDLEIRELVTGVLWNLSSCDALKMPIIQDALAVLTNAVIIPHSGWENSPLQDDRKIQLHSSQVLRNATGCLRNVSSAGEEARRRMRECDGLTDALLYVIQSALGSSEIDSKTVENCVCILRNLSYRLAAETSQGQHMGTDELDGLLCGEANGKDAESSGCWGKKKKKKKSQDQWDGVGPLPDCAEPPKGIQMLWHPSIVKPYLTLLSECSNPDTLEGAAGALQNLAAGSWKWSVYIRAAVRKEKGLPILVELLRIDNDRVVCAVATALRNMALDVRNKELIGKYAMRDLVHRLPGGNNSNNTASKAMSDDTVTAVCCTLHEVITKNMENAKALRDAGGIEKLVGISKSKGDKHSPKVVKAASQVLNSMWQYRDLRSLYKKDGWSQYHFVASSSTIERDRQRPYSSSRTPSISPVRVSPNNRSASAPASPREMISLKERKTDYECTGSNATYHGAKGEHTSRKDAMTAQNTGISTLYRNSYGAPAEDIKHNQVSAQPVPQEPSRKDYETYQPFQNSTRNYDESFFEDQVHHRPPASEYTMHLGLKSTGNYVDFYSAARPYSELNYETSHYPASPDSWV

[3] = biological target: T3, tumor necrosis factor, alpha-induced protein 1 (endothelial) (human, UniProt Q13829 1-316); test: Y2H; INT ID 402
T3 construct: also called TNFAIP1; cbe_3705944
T3 sequence: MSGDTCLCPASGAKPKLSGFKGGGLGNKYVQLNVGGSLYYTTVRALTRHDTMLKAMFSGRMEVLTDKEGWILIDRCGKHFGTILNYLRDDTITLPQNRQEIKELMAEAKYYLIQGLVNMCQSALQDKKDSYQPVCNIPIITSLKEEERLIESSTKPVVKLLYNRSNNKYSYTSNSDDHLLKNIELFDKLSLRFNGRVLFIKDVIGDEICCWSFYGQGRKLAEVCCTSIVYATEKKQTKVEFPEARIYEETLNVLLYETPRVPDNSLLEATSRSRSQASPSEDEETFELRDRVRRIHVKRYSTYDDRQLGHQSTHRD

[4] = biological target: T4, TNNC1 (human, UniProt P63316 1-161); test: Y2H; INT ID 407
T4 construct: also called cbe_4267981

[5] = biological target: T5, yeast Sec31p homolog (human, UniProt O94979 1-1220); test: Y2H; INT ID 408
T5 construct: also called KIAA0905; cbe_4383836
T5 sequence: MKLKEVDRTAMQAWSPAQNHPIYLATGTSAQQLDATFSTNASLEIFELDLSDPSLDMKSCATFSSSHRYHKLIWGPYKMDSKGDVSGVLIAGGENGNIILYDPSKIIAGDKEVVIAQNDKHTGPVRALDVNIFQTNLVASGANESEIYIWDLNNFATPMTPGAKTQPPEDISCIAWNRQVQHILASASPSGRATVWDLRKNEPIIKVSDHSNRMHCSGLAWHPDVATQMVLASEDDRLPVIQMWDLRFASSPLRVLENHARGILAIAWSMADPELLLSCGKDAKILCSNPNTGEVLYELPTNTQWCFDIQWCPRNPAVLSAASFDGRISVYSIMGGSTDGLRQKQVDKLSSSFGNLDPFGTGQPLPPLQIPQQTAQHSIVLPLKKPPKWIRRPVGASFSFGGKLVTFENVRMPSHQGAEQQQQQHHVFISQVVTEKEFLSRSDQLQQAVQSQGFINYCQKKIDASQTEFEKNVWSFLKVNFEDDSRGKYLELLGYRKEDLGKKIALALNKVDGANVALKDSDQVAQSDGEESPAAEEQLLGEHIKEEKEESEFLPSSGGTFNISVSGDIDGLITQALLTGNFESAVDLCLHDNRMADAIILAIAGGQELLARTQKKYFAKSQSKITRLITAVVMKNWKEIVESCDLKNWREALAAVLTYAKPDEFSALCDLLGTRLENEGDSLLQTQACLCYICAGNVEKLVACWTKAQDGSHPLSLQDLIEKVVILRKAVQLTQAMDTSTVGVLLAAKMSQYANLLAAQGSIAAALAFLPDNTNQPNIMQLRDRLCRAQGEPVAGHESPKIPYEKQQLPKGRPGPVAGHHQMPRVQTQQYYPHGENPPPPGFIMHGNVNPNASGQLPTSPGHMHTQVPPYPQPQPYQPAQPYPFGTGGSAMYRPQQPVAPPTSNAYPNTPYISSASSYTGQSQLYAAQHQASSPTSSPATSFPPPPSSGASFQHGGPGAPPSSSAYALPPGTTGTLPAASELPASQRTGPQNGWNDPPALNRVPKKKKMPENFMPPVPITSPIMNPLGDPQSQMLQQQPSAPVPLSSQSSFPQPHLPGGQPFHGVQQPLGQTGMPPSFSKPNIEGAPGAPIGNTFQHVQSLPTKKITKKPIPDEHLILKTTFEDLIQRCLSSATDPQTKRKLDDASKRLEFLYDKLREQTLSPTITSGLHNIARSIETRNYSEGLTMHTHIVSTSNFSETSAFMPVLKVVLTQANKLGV

Measured: binding result

B1: Human Papillomavirus 1a E1-E4 (other)
chain: MADNKAPQGLLGLLQYTPTTQPYPRVTPPSNRRPSTTPNSQDRGRPRRSDKDSRKHLYADGLTDGEDPEVPEVEDEEKENQRPLGHPDLSLLRETLEVYTQRLKRDILQDLDDFCRKLGIHPWSV
notes: also called HPV 1a E1-E4; cbe_251740
binds: all assays above
